Where two headings read alike, the source gives them in different places.
Key:
[1] = molecular target: T1, recombinant human LAG3(ECD)-his (Sino Biological, Cat #: 16498-H08H) (human, UniProt P18627 23-450); assay: SPR (BIAcore 8K), human LAG3(ECD)-his coupled to chip, antibody injected, 1:1 Langmuir
T1 construct: extracellular domain; Bought protein; not shown: his tag
T1 sequence (looked up): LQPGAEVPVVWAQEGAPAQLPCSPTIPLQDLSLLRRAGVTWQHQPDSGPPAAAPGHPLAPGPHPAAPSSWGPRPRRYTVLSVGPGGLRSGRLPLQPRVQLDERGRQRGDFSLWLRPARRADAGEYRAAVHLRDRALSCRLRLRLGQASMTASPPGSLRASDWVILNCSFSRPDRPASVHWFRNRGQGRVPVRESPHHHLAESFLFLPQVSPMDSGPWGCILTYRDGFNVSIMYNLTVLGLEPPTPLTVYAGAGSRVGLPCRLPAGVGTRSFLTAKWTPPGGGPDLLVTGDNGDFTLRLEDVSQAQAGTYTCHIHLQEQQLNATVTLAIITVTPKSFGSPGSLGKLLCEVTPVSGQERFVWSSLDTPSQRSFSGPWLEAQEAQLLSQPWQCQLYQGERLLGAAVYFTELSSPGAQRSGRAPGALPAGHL
Experimental: (§1) Serially diluted antibodies at concentrations ranging from 0.3 μM to 10 μM were injected into the SPR running buffer (HBS-EP buffer, pH7.4, GE Life Sciences; US; Cat #: BR-1006-69) at 30 μL/minute. The binding capacities were calculated with the RUs of blank controls subtracted. The association rate (Ka) and dissociation rate (Kd) were calculated using the one-to-one Langmuir binding model (BIA Evaluation Software, GE Life Sciences). The equilibrium dissociation constant K_D was calculated as the kd/ka ratio.

[2] = molecular target: T2, monkey (rhesus) LAG3 expressed on HEK293A cells (monkey (rhesus), UniProt A0A5F8A874 23-533); assay: FACS on HEK293A cells expressing rhesus LAG3
T2 construct: whole, on cells; also called HEK293A/rh LAG3
T2 sequence: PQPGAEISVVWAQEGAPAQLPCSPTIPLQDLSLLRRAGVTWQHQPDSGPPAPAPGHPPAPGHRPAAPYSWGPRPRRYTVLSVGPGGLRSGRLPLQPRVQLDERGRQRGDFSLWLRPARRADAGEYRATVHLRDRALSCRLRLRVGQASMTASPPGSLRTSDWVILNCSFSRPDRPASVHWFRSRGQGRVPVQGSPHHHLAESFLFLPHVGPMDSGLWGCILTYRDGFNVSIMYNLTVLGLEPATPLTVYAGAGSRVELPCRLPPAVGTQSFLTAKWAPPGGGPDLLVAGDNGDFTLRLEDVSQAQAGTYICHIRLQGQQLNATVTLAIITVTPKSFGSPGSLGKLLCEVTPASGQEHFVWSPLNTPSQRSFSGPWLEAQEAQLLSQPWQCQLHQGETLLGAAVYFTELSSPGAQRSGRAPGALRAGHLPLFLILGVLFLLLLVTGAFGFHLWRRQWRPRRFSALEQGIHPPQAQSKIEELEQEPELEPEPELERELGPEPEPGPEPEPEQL
Experimental: (§2) Briefly, 10^5 HEK293A cells in 50 μl PBS buffers were seeded into each well of the 96-well plates and then added with 50 μl of serially diluted anti-LAG3 antibodies (5-fold dilution, starting from 40 μg/ml). After incubated at 4° C. for 1 hour, plates were washed 3 times with PBST. Then, an APC coupled Goat Anti-Mouse IgG (BioLegend, US, Cat #: 405308) diluted 500× was added to the plates. After incubation at 4° C. for 1 hour, the plates were washed with PBS for 3 times and then cell fluorescence was monitored using a FACS machine (BD).
(§3) Further, the binding activities of the two antibodies to actived human PBMCs were investigated by FACS. Briefly, human PBMCs were collected by density gradient centrifugation and then re-suspended in the complete medium (RPMI medium+10% FBS+ human IL-2 (20 IU/ml, R&D, Cat #: 202-IL)+ Dynabeads™ Human T-Activator CD3/CD28 (Gibco, Cat #: 11132D)) at 37° C. under 5% CO_2 in a humidified incubator for 2 days to get activated T cells. The cells were then collected and tested by FACS as described in Example 6.

[3] = molecular target: T1, recombinant human LAG3(ECD)-his (Sino …); assay: SPR (BIAcore 8K), human LAG3(ECD)-his coupled to chip, antibody injected, 1:1 Langmuir; printed a second time as 'Ka values', read as Kd
Experimental: as §1

Human PBMC = molecular target: T3, Human PBMC; assay: FACS on activated human PBMC
T3 chain: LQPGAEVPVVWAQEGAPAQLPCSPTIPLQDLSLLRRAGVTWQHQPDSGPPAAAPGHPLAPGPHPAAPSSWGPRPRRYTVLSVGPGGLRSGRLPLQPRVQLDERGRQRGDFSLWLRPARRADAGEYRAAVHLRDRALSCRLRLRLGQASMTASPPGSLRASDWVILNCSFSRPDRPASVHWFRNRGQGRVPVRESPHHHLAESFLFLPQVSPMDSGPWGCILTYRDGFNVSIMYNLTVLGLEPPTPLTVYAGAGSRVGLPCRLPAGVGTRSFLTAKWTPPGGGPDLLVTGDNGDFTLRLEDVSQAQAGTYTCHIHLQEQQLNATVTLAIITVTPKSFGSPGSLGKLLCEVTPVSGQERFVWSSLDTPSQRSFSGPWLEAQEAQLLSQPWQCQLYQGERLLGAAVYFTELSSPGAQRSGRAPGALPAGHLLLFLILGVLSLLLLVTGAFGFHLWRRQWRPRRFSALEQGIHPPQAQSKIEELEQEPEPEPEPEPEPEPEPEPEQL
Experimental: as §2, §3

[4] = molecular target: T1, recombinant human LAG3(ECD)-his (Sino …); assay: ELISA on coated human LAG3(ECD)-his
Experimental: The wells were blocked with 200 µl of blocking buffer (PBS containing 1% BSA, 1% goat serum, and 0.05% Tween 20) for 2 hours at room temperature, and then 100 µl of serially diluted anti-LAG3 antibodies (starting from 40 µg/ml) were added to each well and incubated for 1 hour at RT. Plates were washed for 3 times with PBST (PBS+0.05% Tween 20), added with Goat-anti-mouse IgG-HRP (Sigma, US, Cat #: A9309-1 ml) diluted 5000×, and incubated for 1 hour at RT. Plates were developed with freshly prepared Ultra-TMB (BD, US, Cat #:555214) for 5 minutes at RT. Absorbance was read on a SpectraMaxR i3X (Molecular Devies, US) at 450 nm.
as §3

[5] = molecular target: T4, monkey LAG3(ECD)-mFc protein (ACRO, Cat #: LA3-052A0) (monkey); assay: SPR (BIAcore 8K), monkey LAG3(ECD)-mFc coupled to chip, antibody injected, 1:1 Langmuir
T4 construct: extracellular domain; Bought protein
Experimental: as §1

[6] = molecular target: T5, mouse LAG3 expressed on HEK293A cells (mouse, UniProt Q61790 24-521); assay: FACS on HEK293A cells expressing mouse LAG3
T5 construct: whole, on cells; also called HEK293A/mouse LAG3
T5 sequence (looked up): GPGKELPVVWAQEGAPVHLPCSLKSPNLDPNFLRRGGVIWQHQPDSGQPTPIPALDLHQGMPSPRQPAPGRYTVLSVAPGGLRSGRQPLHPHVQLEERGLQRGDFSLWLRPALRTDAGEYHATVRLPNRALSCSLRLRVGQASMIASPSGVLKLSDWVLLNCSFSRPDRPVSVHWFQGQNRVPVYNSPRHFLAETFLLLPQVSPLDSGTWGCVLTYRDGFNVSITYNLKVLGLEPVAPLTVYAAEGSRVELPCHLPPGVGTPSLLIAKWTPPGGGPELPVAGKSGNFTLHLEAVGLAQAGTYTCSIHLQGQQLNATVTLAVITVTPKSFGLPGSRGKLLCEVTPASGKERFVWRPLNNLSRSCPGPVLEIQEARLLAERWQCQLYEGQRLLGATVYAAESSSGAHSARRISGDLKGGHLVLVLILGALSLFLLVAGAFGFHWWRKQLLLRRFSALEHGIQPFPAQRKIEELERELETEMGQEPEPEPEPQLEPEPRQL

[7] = molecular target: T6, human LAG3 expressed on HEK293A cells (human, UniProt P18627 23-525); assay: FACS on HEK293A cells expressing human LAG3
T6 construct: whole, on cells; also called HEK293A/human LAG3
T6 sequence (looked up): T3 chain

[8] = molecular target: T2, monkey (rhesus) LAG3 expressed on …; assay: FACS on HEK293A cells expressing rhesus LAG3; remark: listed apart in the source
[9] = molecular target: T5, mouse LAG3 expressed on HEK293A cells; assay: FACS on HEK293A cells expressing mouse LAG3; remark: listed apart in the source

B1: humanized (with affinity maturation) antibody 101F4H2L2-8 (antibody, human IgG4 S228P, kappa, V domains shown)
VH: QVQLVQSGAEVKKPGASVKVSCKVSGYTFTDYEMHWVRQAPGKGLEWMGAIDPETGGIVYNQRFKGRVTLTADTSTDTAYMELSSLRSEDTAVYYCATTGWNDWGQGTTVTVSS
VL: DIQMTQSPSSLSASVGDRVTITCKASQDINSYLSWYQQKPGKAPKLLIYRANRLLDGVPSRFSGSGSGQDYTLTISSLQPEDFATYYCQQYDEFPFTFGQGTKLEIKR
Kd [1]: 2050 pM
kon [1]: 104000 M⁻¹ s⁻¹
EC50 (read off the curve) [2]: ~0.8 µg/mL
koff [3]: 0.000214 s⁻¹
EC50 (read off the curve) (Human PBMC): ~0.02 µg/mL
EC50 (read off the curve) [4]: ~1 µg/mL
Kd [5]: 980 pM

B2: chimeric 101F4 antibody (antibody, human IgG4 S228P, kappa, V domains shown)
VH: EVQLEQSGAELVRPGASVTLSCKASGYTFTDYEMHWVKQTPVYGLEWMGAIDPETGGIVYNQRFKGKAILTADKSSSTAYMELRSLTSEDSAVYYCTGAGWGYWGQGTTLTVSS
VL: DIVITQSPSSMYASLGERVTITCKASQDINSYLSWFQQKPGKSPKTLIYRANRLLDGVPSRFSGSGSGQDYSLTISSLEFEDMGLYYCLQYDEFPFTFGSGTKLEIKR
notes: Mouse variable regions on human IgG4 (S228P)/kappa constant regions; also called 101F4-CM
binding result [6]: no binding
Kd [1]: 833 pM
kon [1]: 403000 M⁻¹ s⁻¹
koff [3]: 0.000335 s⁻¹
EC50 (read off the curve) [7]: ~0.05 µg/mL
EC50 (read off the curve) [8]: ~0.4 µg/mL

B3: chimeric 134G10 antibody (antibody, human IgG4 S228P, kappa, V domains shown)
VH: EVQLVESGGDLVKPGGSLKLSCAASGFTFSSFGMSWVRQTPDKRLEWVGIISSGGTYTFYPDILKGRFTISRDNAKNTLYLQMSSLKSEDTAMYYCARVYSDYDGRFDYWGQGTTLTVSS
VL: DIVMTQSPSSLSVSAGEKVTMNCKSSQSLLNSGNQKNYLAWYQQKPGQPPKLLIYGASTRESGVPDRFTGSGSGTDFTLTISSVQAEDLAVYYCQNDHSYPLTFGAGTKLELKR
notes: Mouse variable regions on human IgG4 (S228P)/kappa constant regions; also called 134G10-CM
Kd [1]: 737 pM
kon [1]: 93900 M⁻¹ s⁻¹
binding result [9]: no binding
EC50 (read off the curve) [7]: ~0.09 µg/mL

Source: patent US10946092 (BEIJING MABWORKS BIOTECH, dated 2021)
